The source of these data is patent US20260242478A1 (published 2026).

Test [1] concerns the target T1, PSMA Fab (006 PSMA Fab).
T1 construct: also called Anti-PSMA Fab; anti-PSMA Fab
Description: clonal phage ELISA; biotinylated PSMA Fab on neutravidin plate, blocking buffer alone, anti-M13-HRP detection.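 Also: crude clonal phage supernatants added without washing to wells preincubated with PSMA antigen or with blocking buffer alone, briefly incubated, then washed before bound phage detection.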
Description: (§1) Clonal phage were harvested as crude supernatants and screened via standard ELISAs. […] Prior to the addition of clonal phage. wells were incubated with blocking buffer and PSMA antigen or blocking buffer alone. Without washing or aspirating, clonal phage supernatants were then added to the wells and incubated for a short time. Wells were then washed followed by detection of bound phage using a horse radish conjugated anti-M13 antibody.

For test [2], the target named is T1, PSMA Fab (006 PSMA Fab). Put plainly: clonal phage ELISA; biotinylated PSMA Fab on neutravidin plate, wells pre-incubated with PSMA antigen (competitor), anti-M13-HRP detection. (In general: In an ELISA, binding on a coated surface is turned into a signal by an enzyme label.)
Description: as §1
In test [3] the target is PSMA Fab (anti-PSMA Fab; 006 PSMA Fab). Description: phage binding ELISA on captured PSMA Fab; wells first incubated with PSMA antigen as competitor; anti-M13 HRP detection.
Description: as §1
Test [4] has the same target. Description: phage binding ELISA; clonal phage supernatant on biotinylated PSMA Fab captured on neutravidin plate; anti-M13 HRP detection.
Description: as §1
Test [5] has as its target T2, 006 PSMA Fab (biotinylated (site not stated)).
T2 construct: Biotinylated PSMA Fab captured on neutravidin coated plates in the panning ELISA; also called Anti-PSMA Fab
Description: clonal phage ELISA on captured PSMA Fab, wells pre-incubated with PSMA antigen as competitor.

Test [6] deals with T2, 006 PSMA Fab. Description: clonal phage ELISA on biotinylated PSMA Fab captured on neutravidin plates, anti-M13-HRP detection.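 Also: crude clonal phage supernatants added to wells preincubated with PSMA antigen or with blocking buffer only (no wash between), briefly incubated, then washed before detecting bound phage.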
Description: as §1

Where no end group is shown, it is not given here.

As to NVKWCVPHWMCEVS [Phage-2721], the “Phage binding ELISA signal, Anti-PSMA Fab” value in test [1] came out at 0.765. In addition, the “Phage binding ELISA signal, Anti-PSMA Fab in presence of PSMA antigen” value in test [2] was found to be 0.0649.
With FENWCTPYWMCSGM [Phage-2739 (Peptide-180 library clone)], the “Phage binding ELISA signal, Anti-PSMA Fab with PSMA antigen” value in test [3] is 0.0884. Further, the “Phage binding ELISA signal, Anti-PSMA Fab” value in test [4] was 0.712.
In the case of DIKWCTPSWMCPAK [Phage-2733 (Peptide-180 library clone)], in test [3], the “Phage binding ELISA signal, Anti-PSMA Fab with PSMA antigen” value is 0.0862. In test [4], the “Phage binding ELISA signal, Anti-PSMA Fab” value was 0.729.
Take DYKWCTPMWMCEVV [Phage-2723]: in test [1], the “Phage binding ELISA signal, Anti-PSMA Fab” value came out at 0.753. The “Phage binding ELISA signal, Anti-PSMA Fab in presence of PSMA antigen” value in test [2] is 0.0761.

B1: Phage-2713 (peptide)
peptide: NTHWCTPSWMCSAW
modifications: cysteine pairing not given here; also: displayed on bacteriophage as fusion to pIII, linker not given here
As for B1, in test [1], the “Phage binding ELISA signal, Anti-PSMA Fab” value turned out to be 0.789. Moreover, in test [2], the “Phage binding ELISA signal, Anti-PSMA Fab in presence of PSMA antigen” value came out at 0.0816.

B2: Phage-2712 (peptide)
peptide: WENWCRPSWMCEDT
modifications: cysteine pairing not given here; also: displayed on bacteriophage as fusion to pIII, linker not given here
Consider B2, for which the “Phage binding ELISA signal, Anti-PSMA Fab” value in test [1] is 0.79. Also, in test [2], the “Phage binding ELISA signal, Anti-PSMA Fab in presence of PSMA antigen” value is 0.0568.

B3: Phage-2716 (peptide)
peptide: VANWCTPKWMCEHV
modifications: cysteine pairing not given here; also: displayed on bacteriophage as fusion to pIII, linker not given here
With B3, in test [1], the “Phage binding ELISA signal, Anti-PSMA Fab” value stood at 0.777. Further, the “Phage binding ELISA signal, Anti-PSMA Fab in presence of PSMA antigen” value in test [2] amounted to 0.0631.

B4: Phage-2757 (peptide)
peptide: GEIRCSPAWMCDGF
notes: Clone of the Peptide-180 optimisation library, tested as clonal phage supernatant (peptide fused to pIII of the bacteriophage)
For B4, the “phage binding ELISA signal in presence of PSMA antigen” value in test [5] was determined as 0.104. Moreover, the “phage binding ELISA signal” value in test [6] was 0.682.

B5: Phage-2718 (peptide)
peptide: TQKWCIPAWMCAER
modifications: cysteine pairing not given here; also: displayed on bacteriophage as fusion to pIII, linker not given here
With B5, the “Phage binding ELISA signal, Anti-PSMA Fab” value in test [1] came out at 0.774. Further, the “Phage binding ELISA signal, Anti-PSMA Fab in presence of PSMA antigen” value in test [2] stood at 0.0702.
For EWKWCTPPWMCTTN [Phage-2724] the same measures were 0.752 and 0.0835.

B6: Phage-2719 (peptide)
peptide: DMHWCTPQWMCAPL
modifications: cysteine pairing not given here; also: displayed on bacteriophage as fusion to pIII, linker not given here
On to B6, for which, in test [1], the “Phage binding ELISA signal, Anti-PSMA Fab” value turned out to be 0.771. Also, in test [2], the “Phage binding ELISA signal, Anti-PSMA Fab in presence of PSMA antigen” value is 0.0856.
Turning to HGKLCTPSWMCNGF [Phage-2735 (Peptide-180 library clone)], the “Phage binding ELISA signal, Anti-PSMA Fab with PSMA antigen” value in test [3] was 0.0619. Further, in test [4], the “Phage binding ELISA signal, Anti-PSMA Fab” value was determined as 0.721.
As for LYNRCTPAWMCTGF [Phage-2729 (Peptide-180 library clone)], the “Phage binding ELISA signal, Anti-PSMA Fab with PSMA antigen” value in test [3] came out at 0.0657. The “Phage binding ELISA signal, Anti-PSMA Fab” value in test [4] is 0.738.
Consider WQKWCTPMWMCEAT [Phage-2727 (Peptide-180 library clone)], for which the “Phage binding ELISA signal, Anti-PSMA Fab with PSMA antigen” value in test [3] worked out at 0.0785. The “Phage binding ELISA signal, Anti-PSMA Fab” value in test [4] came out at 0.744.
For the molecule IVKWCTPAWMCDQQ [Phage-2736 (Peptide-180 library clone)], in test [3], the “Phage binding ELISA signal, Anti-PSMA Fab with PSMA antigen” value amounted to 0.0809. Also, the “Phage binding ELISA signal, Anti-PSMA Fab” value in test [4] was found to be 0.72.
With VSNWCKPAWMCGTT [Phage-2731 (Peptide-180 library clone)], in test [3], the “Phage binding ELISA signal, Anti-PSMA Fab with PSMA antigen” value is 0.079. Further, the “Phage binding ELISA signal, Anti-PSMA Fab” value in test [4] was determined as 0.733.
In the case of WEKWCTPPWMCHDM [Phage-2732 (Peptide-180 library clone)], the “Phage binding ELISA signal, Anti-PSMA Fab with PSMA antigen” value in test [3] worked out at 0.0669. In test [4], the “Phage binding ELISA signal, Anti-PSMA Fab” value came out at 0.733.
As to MEKMCTPQWMCDMW [Phage-2725 (Peptide-180 library clone)], in test [3], the “Phage binding ELISA signal, Anti-PSMA Fab with PSMA antigen” value stood at 0.0732. The “Phage binding ELISA signal, Anti-PSMA Fab” value in test [4] was determined as 0.749.

B7: Phage-2720 (peptide)
peptide: DWKWCTPSWMCAQK
modifications: cysteine pairing not given here; also: displayed on bacteriophage as fusion to pIII, linker not given here
Turning to B7, in test [1], the “Phage binding ELISA signal, Anti-PSMA Fab” value was determined as 0.769. The “Phage binding ELISA signal, Anti-PSMA Fab in presence of PSMA antigen” value in test [2] worked out at 0.0639.
For DQKWCIPLWMCETR [Phage-2722], the “Phage binding ELISA signal, Anti-PSMA Fab” value in test [1] turned out to be 0.762. In test [2], the “Phage binding ELISA signal, Anti-PSMA Fab in presence of PSMA antigen” value was 0.0727.

B8: Phage-2711 (peptide)
peptide: NVSMCIPNWMCVGL
modifications: cysteine pairing not given here; also: displayed on bacteriophage as fusion to pIII, linker not given here
Consider B8, for which the “Phage binding ELISA signal, Anti-PSMA Fab” value in test [1] was found to be 0.791. In test [2], the “Phage binding ELISA signal, Anti-PSMA Fab in presence of PSMA antigen” value was found to be 0.0891.
With TNNWCIPSWMCDIR [Phage-2737 (Peptide-180 library clone)], the “Phage binding ELISA signal, Anti-PSMA Fab with PSMA antigen” value in test [3] was 0.0629. In addition, the “Phage binding ELISA signal, Anti-PSMA Fab” value in test [4] was 0.718.

B9: Phage-2738 (Peptide-180 library clone) (peptide)
peptide: WEKLCRPAWMCAAY
modifications: cysteine pairing not given here; also: fused to pIII, displayed on bacteriophage
B9: the “Phage binding ELISA signal, Anti-PSMA Fab with PSMA antigen” value in test [3] stood at 0.0754. Further, in test [4], the “Phage binding ELISA signal, Anti-PSMA Fab” value stood at 0.715.
In the same order, the values of VNPSCTPSWMCLGL [Phage-2728 (Peptide-180 library clone)] are 0.0793 and 0.739.

B10: Phage-2715 (peptide)
peptide: VYKWCTPSWMCADP
modifications: cysteine pairing not given here; also: displayed on bacteriophage as fusion to pIII, linker not given here
On to B10, for which, in test [1], the “Phage binding ELISA signal, Anti-PSMA Fab” value came to 0.779. Further, the “Phage binding ELISA signal, Anti-PSMA Fab in presence of PSMA antigen” value in test [2] was determined as 0.0676.

B11: Phage-2717 (peptide)
peptide: EYTWCKPAWMCDGV
modifications: cysteine pairing not given here; also: displayed on bacteriophage as fusion to pIII, linker not given here
Take B11: the “Phage binding ELISA signal, Anti-PSMA Fab” value in test [1] was found to be 0.774. Moreover, the “Phage binding ELISA signal, Anti-PSMA Fab in presence of PSMA antigen” value in test [2] was determined as 0.0742.
Regarding INKWCTPAWMCDLS [Phage-2726 (Peptide-180 library clone)], the “Phage binding ELISA signal, Anti-PSMA Fab with PSMA antigen” value in test [3] is 0.0937. For the same molecule, in test [4], the “Phage binding ELISA signal, Anti-PSMA Fab” value was determined as 0.747.

B12: Phage-2714 (peptide)
peptide: HEKWCVPSWMCDDW
modifications: cysteine pairing not given here; also: displayed on bacteriophage as fusion to pIII, linker not given here
With B12, in test [1], the “Phage binding ELISA signal, Anti-PSMA Fab” value was determined as 0.784. Moreover, in test [2], the “Phage binding ELISA signal, Anti-PSMA Fab in presence of PSMA antigen” value was 0.0669.

B13: Phage-2756 (peptide)
peptide: AHNWCTPAWMCMWD
modifications: cysteine pairing not given here; also: fused to pIII, displayed on bacteriophage
notes: as for B4
For B13, the “phage binding ELISA signal in presence of PSMA antigen” value in test [5] is 0.0753. The “phage binding ELISA signal” value in test [6] worked out at 0.682.
Turning to QMPLCIPQWMCTNN [Phage-2734 (Peptide-180 library clone)], in test [3], the “Phage binding ELISA signal, Anti-PSMA Fab with PSMA antigen” value turned out to be 0.0562. In test [4], the “Phage binding ELISA signal, Anti-PSMA Fab” value amounted to 0.723.

B14: Phage-2710 (peptide)
peptide: SVKWCTPPWMCTGL
modifications: cysteine pairing not given here; also: displayed on bacteriophage as fusion to pIII, linker not given here
With B14, the “Phage binding ELISA signal, Anti-PSMA Fab” value in test [1] was found to be 0.792. The “Phage binding ELISA signal, Anti-PSMA Fab in presence of PSMA antigen” value in test [2] turned out to be 0.0767.
Regarding EMKWCKPEWMCPWM [Phage-2730 (Peptide-180 library clone)], the “Phage binding ELISA signal, Anti-PSMA Fab with PSMA antigen” value in test [3] worked out at 0.0688. For the same molecule, in test [4], the “Phage binding ELISA signal, Anti-PSMA Fab” value amounted to 0.733.
